Residue numbers refer to the chain shown, from its start. One block for each binder: values may come before it.
Columns and labels:
[1] = biological target: T1, Human GDF8 homodimer (mature human Growth and Differentiation Factor-8) (human, UniProt O14793 267-375); assay: cell-based or functional assay
T1 sequence: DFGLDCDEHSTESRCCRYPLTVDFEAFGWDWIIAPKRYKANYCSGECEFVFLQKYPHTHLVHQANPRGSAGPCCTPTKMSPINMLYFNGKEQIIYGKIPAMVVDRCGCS

[2] = biological target: T2, hGDF11 homodimer (human, UniProt O95390 299-407); assay: cell-based or functional assay
T2 sequence (looked up): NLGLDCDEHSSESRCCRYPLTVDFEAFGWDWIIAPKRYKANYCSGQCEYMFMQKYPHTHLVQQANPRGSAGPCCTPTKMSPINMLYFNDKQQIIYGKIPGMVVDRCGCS

[3] = biological target: T1, Human GDF8 homodimer (mature human …); assay: cell-based or functional assay; remark: listed apart in the source
[4] = biological target: T2, hGDF11 homodimer; assay: cell-based or functional assay; remark: listed apart in the source
[5] = biological target: T3, T65 chimera: GDF8.1-64.TGFβ1.69-76.GDF8.73-109 (Mus musculus (Mouse), UniProt O08689 268-376); assay: Western blot of CHO.hFurin supernatant, antibody 2 µg/ml
T3 construct: CHO.hFurin supernatant
T3 chain: T1 sequence with R67G, G68A, G71A
Protocol: (§1) The various chimeric GDF8 pro-proteins were transiently transfected in an engineered stable CHO.hFurin cell line. A similar Western Blot analysis as described above was used to detect the binding of various anti-hGDF8 antibodies to each of the chimeric GDF8. Briefly, […] of CHO supernatant were loaded onto each lane of an SDS-PAGE (non-reducing or reducing) gel and electroblotted onto a PVDF membrane. The membrane was then incubated with an anti-GDF8 antibody at 2 μg/ml followed by exposure to the appropriate secondary antibody conjugated to HRP.

[6] = biological target: T4, B48 chimera: GDF8.1-47.BMP2.48-77.GDF8.73-109; assay: as above
T4 construct: CHO.hFurin supernatant
T4 chain: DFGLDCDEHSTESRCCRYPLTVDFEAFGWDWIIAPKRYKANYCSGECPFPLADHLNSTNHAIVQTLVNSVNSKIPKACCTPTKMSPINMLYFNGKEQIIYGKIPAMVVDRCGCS
Protocol: as §1

[7] = biological target: T5, B91 chimera: GDF8.1-90.BMP2.96-110.GDF8.106-109; assay: as above
T5 construct: CHO.hFurin supernatant
T5 chain: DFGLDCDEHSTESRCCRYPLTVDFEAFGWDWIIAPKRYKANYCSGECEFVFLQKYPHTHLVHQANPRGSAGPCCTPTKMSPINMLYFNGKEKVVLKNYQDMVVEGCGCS
Protocol: as §1

[8] = biological target: T1, Human GDF8 homodimer (mature human …); assay: SPR, antibody captured, 25 nM antigen
Protocol: (§2) Equilibrium dissociation constants (KD values) for antigen binding to selected antibodies were determined by surface kinetics using a real-time biosensor surface plasmon resonance assay (BIACORE™ 2000). Each selected antibody was captured on either a goat anti-mouse IgG polyclonal antibody surface or a goat anti-hFc polyclonal antibody (Jackson Immuno Research Lab) surface created through direct chemical coupling to a BIACORE™ chip to form a captured antibody surface. Human GDF8 homodimer, hGDF11 homodimer, or hGDF5 homodimer at 25 nM was injected over the captured antibody surfaces, and antigen-antibody binding and dissociation were monitored in real time at room temperature. Kinetic analysis was performed to calculate KD, dissociation rate constants (kd), association rate constants (ka) and half-life of antigen/antibody complex dissociation (Table 2).

[9] = biological target: T2, hGDF11 homodimer; assay: SPR, antibody captured, 25 nM antigen
Protocol: as §2

[10] = biological target: T6, GDF8/TGFβ[48-72] chimera (T48): GDF8.1-47.TGFβ1.49-76.GDF8.73-109 (human GDF8 with human TGFβ-1 sequence); assay: cell-based or functional assay
T6 chain: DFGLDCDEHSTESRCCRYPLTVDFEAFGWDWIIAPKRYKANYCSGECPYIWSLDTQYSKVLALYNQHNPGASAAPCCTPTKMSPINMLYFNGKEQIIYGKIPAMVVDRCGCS

[11] = biological target: T1, Human GDF8 homodimer (mature human …); assay: SPR, antibody captured, buffer without BSA
Protocol: as §2

[12] = biological target: T2, hGDF11 homodimer; assay: SPR, antibody captured, buffer without BSA
Protocol: as §2

[13] = biological target: T1, Human GDF8 homodimer (mature human …); assay: SPR Biacore T100, captured on anti-hFc, 25°C
Protocol: (§3) Additional antigen binding experiments were conducted in which GDF8 and GDF11 were applied over a surface of selected anti-GDF8 antibodies and control antibodies at 25° C. and 37° C. Equilibrium dissociation constants (KD values) for antigen binding to selected antibodies were determined by surface kinetics using a real-time biosensor surface plasmon resonance assay (BIACORE™ T100). […] Various concentrations (2.5-0.625 nM, 2-fold dilutions) of hGDF8 homodimer or hGDF11 homodimer (or in some experiments, Activin A) were injected over the captured antibody surfaces, and antigen-antibody binding and dissociation were monitored in real time. Kinetic analysis was performed to calculate KD, dissociation rate constants (kd), association rate constants (ka) and half-life of antigen/antibody complex dissociation. (NB=no binding observed).

[14] = biological target: T1, Human GDF8 homodimer (mature human …); assay: SPR Biacore T100, captured on anti-hFc, 37°C
Protocol: as §3

[15] = biological target: T2, hGDF11 homodimer; assay: GDF11-inducible luciferase bioassay, 0.4 nM GDF11 (legend: NB=no binding)

B1: 1A2 (antibody, V domains shown)
VH: EVQLLESGGGLVQPGGSLRLSCAASGFTSITYAMSWVRQAPGKGLEWVSAISVSGTNTYYADSVKGRFTISRDKSKNMLYLQMNSLRAEDTAVYYCAKDLLHNWKYGTFDIWGQGTMVTVSS
VL: EIVMTQSPATLSVSPGERATLSCRASQSVDSNLVWYQQKPGQVPRLLIYGASTRATGIPARFSGSGSGTEFTLTISSLQSEDFAVYYCQQYNKWPLTFGGGTKVEIK
notes: also called 1A2 mAb
IC50, GDF8-inducible luciferase, A204/Smad2 cells, 0.8 nM GDF8 [1]: 0.8 nM
IC50, GDF11-inducible luciferase, A204/Smad2 cells, 0.8 nM GDF11 [2]: 1400 nM
IC50, luciferase bioassay, 0.5 nM GDF8 [3]: 0.196 nM
IC50, luciferase bioassay, 1 nM GDF8 [3]: 0.363 nM
IC50, luciferase bioassay, 0.4 nM GDF11 [4]: ~600 nM
IC50, luciferase bioassay, 0.8 nM GDF11 [4]: ~800 nM
binding result [5]: binds
binding result [6]: binds
binding result [7]: binds
Kd [8]: 0.32 nM
T1/2 [8]: 60 min
Kd [9]: 0.3 nM
T1/2 [9]: 28 min

B2: 1A2-hFc (antibody, V domains shown)
VH: B1 VH
VL: B1 VL
approximate IC50, luciferase bioassay with GDF8/TGFβ[48-72] conditioned medium [10]: 0.357 nM

B3: 1A2-mIgG (antibody, V domains shown)
VH: B1 VH
VL: B1 VL
notes: variable domains of 1A2
Kd [11]: 0.018 nM
T1/2 [11]: 152 min
Kd [12]: 0.926 nM
T1/2 [12]: 1 min

B4: 1A2-hIgG (antibody, V domains shown)
VH: B1 VH
VL: B1 VL
notes: variable domains of 1A2
Kd [11]: 0.006 nM
T1/2 [11]: 340 min
Kd [12]: 0.64 nM
T1/2 [12]: 6 min

B5: 1A2-hIgG1 (antibody, V domains shown)
VH: B1 VH
VL: B1 VL
notes: variable domains of 1A2; also called 1A2-hlgG1
Kd [13]: 0.0623 nM
T1/2 [13]: 96 min
Kd [14]: 0.0462 nM
T1/2 [14]: 39 min

B6: 4G3-25 (antibody, V domains shown)
VH: QVQLVESGGGVVQPGRSLRLSCVVSGFNFSRNGIHWVRQAPGKGLEWVAVISYDGRNKFYVESVKGRFTISRDNSKNTLYLQMNSLRVEDTAVYYCAKSSIGGFFEYWGQGTLVTVSS
VL: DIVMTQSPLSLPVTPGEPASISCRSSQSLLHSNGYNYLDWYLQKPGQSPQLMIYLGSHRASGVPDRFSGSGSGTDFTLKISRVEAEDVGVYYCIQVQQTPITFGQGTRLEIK
IC50, GDF8-inducible luciferase, A204/Smad2 cells, 0.8 nM GDF8 [1]: > 25 nM
IC50, GDF11-inducible luciferase, A204/Smad2 cells, 0.8 nM GDF11 [2]: > 25 nM
Kd [8]: 3.9 nM
T1/2 [8]: 25 min
Kd [9]: 1.41 nM
T1/2 [9]: 39 min

Second part, the binder after the results:

IC50, GDF8-inducible luciferase, A204/Smad2 cells, 0.8 nM GDF8 [1]: 8.5 nM
IC50, GDF11-inducible luciferase, A204/Smad2 cells, 0.8 nM GDF11 [2]: 35 nM
IC50, luciferase bioassay, 0.5 nM GDF8 [3]: 2.34 nM
IC50, luciferase bioassay, 1 nM GDF8 [3]: 2.98 nM
IC50, luciferase bioassay, 0.4 nM GDF11 [4]: 6.9 nM
IC50, luciferase bioassay, 0.8 nM GDF11 [4]: 10.5 nM
Kd [8]: 0.26 nM
T1/2 [8]: 138 min
Kd [9]: 0.12 nM
T1/2 [9]: 116 min
B7: 21-E5 (antibody, V domains shown)
VH: QVQLVESGPGLVKPSETLSLTCTVYGGSISSGNYYWGWIRQPPGKGLEWIGTIYYSGSAYYNPSLKSRVTMSVDTSKNQFSLKLSSVTAADTAVYYCVRDYYDSSGHYYNWFDPWGQGTTVTVSS
VL: AIQMTQSPSSLSASVGDRVTITCRASQDIRHDLGWYQQKPGKAPKRLIYAASSLQSGVPSRFSGSGSGTEFTLTISSLQPEDFATYYCLQHNTYPWTFGQGTKVEIKR

binding result [15]: no binding
IC50, luciferase bioassay, 0.5 nM GDF8 [3]: 0.9 nM
Kd [13]: 0.0393 nM
T1/2 [13]: 131 min
Kd [14]: 0.0584 nM
T1/2 [14]: 40 min
B8: H4H1669P (antibody, V domains shown)
VH: QVQLVESGGGVVQPGKSLRLSCAASGFTFSSFGMHWVRQAPGKGLEWVAVIGYDGGNEYYADSVKGRFTISRDNSKNTLNLQMSSLRAEDTAVYYCSTISHYDILSGMDVWGRGTTVTVSS
VL: DIQMTQSPSSVSASVGDRVTITCRASQGISNWLAWYQQKPGKAPKLLIFAASSLQSGVPSRFSGSASGTDFTLTINSLQPEDFATYYCQQANSFPLTFGGGTKVEIKR
notes: captured by anti-hFc, so human Fc

IC50, GDF8-inducible luciferase, A204/Smad2 cells, 0.8 nM GDF8 [1]: 9.7 nM
IC50, GDF11-inducible luciferase, A204/Smad2 cells, 0.8 nM GDF11 [2]: > 10 nM
Kd [8]: 0.4 nM
T1/2 [8]: 78 min
Kd [9]: 0.9 nM
T1/2 [9]: 21 min
B9: 21-A2 (antibody, V domains shown)
VH: QVQLVQSGGGLVQPGGSLRLSCAASGFTFNTYAISWVRQAPGKGLEWVSTITGSGYNTYYADSVKGRFTISRDNSKNTLYLQMSSLRAEDTAVFYCAKDSRYNWNYGIFDYWGQGTTVTVSS
VL: DIQMTQSPATLSVSPGERATLSCRASQSVSSNLAWYHQKPGQAPRLLIYGVSTRATGIPARFSGNGSGTEFTLTISSLQSEDFAVYYCQQHNNWPLTFGGGTKVEIKR

— patent US20160340421A1 (Regeneron, published 2016)
